# Experimental data reported in patent publication US20200199241A1 (Chugai, published 2020).
# T1: FcγRIIa type H (human, UniProt P12318 36-217)
# T1 construct: also called FcγRIIaH; FcγRIIH
# T1 sequence: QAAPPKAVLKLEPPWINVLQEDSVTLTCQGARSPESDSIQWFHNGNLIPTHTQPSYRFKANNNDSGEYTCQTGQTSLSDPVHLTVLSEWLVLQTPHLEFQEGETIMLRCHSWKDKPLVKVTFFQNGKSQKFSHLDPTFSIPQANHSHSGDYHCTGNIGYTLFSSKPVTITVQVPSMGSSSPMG
# T2: FcγRIIb (human, UniProt P31994 43-217, limits assumed)
# T2 construct: also called FcgRIIb; FcγIIB
# T2 sequence: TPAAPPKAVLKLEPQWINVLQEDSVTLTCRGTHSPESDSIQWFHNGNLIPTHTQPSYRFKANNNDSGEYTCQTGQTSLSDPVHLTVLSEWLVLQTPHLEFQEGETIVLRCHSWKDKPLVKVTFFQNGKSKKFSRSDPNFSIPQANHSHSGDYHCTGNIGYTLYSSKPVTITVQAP
# What was measured:
# Experiment in all cases: SPR (Biacore), bound amount, IL6R-BF648/IL6R-L = 100
# [1] = molecular target: T3, FcγRIIIa type V (human, UniProt P08637 17-208, limits assumed)
# T3 construct: also called FcγRIIIaV; FcgRIIIaV
# [2] = molecular target: T4, FcγRIa (human, UniProt P12314 16-292, limits assumed)
# T4 construct: also called FcgRIa; CD64
# [3] = molecular target: T1, FcγRIIa type H
# [4] = molecular target: T2, FcγRIIb
# T3 sequence (P08637 other isoform, or with tags, fused parts or gaps limits assumed): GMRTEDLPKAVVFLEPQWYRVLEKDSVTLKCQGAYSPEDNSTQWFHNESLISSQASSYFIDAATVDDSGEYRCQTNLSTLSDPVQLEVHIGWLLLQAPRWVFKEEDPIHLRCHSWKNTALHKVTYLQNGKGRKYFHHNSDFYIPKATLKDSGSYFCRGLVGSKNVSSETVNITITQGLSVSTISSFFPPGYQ
# T4 sequence (P12314 16-292 limits assumed): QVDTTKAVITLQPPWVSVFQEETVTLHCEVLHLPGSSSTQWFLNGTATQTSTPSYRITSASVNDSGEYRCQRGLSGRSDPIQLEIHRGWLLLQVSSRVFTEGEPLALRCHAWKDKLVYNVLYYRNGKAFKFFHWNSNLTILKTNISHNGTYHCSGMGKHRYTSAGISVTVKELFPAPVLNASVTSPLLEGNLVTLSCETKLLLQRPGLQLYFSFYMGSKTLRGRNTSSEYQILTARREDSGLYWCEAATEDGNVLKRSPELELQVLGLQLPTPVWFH
Binder,relative binding activity [1],relative binding activity [2],relative binding activity [3],relative binding activity [4]
"IL6R-BP187/IL6R-L (antibody, human IgG1, IgG1; Fc variant of IL6R-B3; copies: 2 + 2) heavy: QVQLQESGPGLVKPSETLSLTCAVSGHSISHDHAWSWVRQPPGEGLEWIGFISYSGITNYNPSLQGRVTISRDNSKNTLYLQMNSLRAEDTAVYYCARSLARTTAMDYWGEGTLVTVSSASTKGPSVFPLAPSSKSTSGGTAALGCLVKDYFPEPVTVSWNSGALTSGVHTFPAVLQSSGLYSLSSVVTVPSSSLGTQTYICNVNHKPSNTKVDKKVEPKSCDKTHTCPPCPAPEYLGGDSVFLFPPKPKDTLMISRTPEVTCVVVDVSHEDGEVKFNWYVDGVEVHNAKTKPREEQYNSTYRVVSVLTVLHQDWLNGKEYKCKVSNAALPKPIEKTISKAKGQPREPQVYTLPPSRDELTKNQVSLTCLVKGFYPSDIAVEWESNGQPENNYKTTPPVLDSDGSFFLYSKLTVDKSRWQQGNVFSCSVMHEALHNHYTQESLSLSP light: DIQMTQSPSSLSASVGDRVTITCRASQDISSYLNWYQQKPGKAPKLLIYYTSRLHSGVPSRFSGSGSGTDFTFTISSLQPEDIATYYCQQGNTLPYTFGQGTKVEIK",124 % of control,68 % of control,205 % of control,157 % of control
"IL6R-BP199/IL6R-L (antibody, human IgG1, IgG1; Fc variant of IL6R-B3; copies: 2 + 2) heavy: QVQLQESGPGLVKPSETLSLTCAVSGHSISHDHAWSWVRQPPGEGLEWIGFISYSGITNYNPSLQGRVTISRDNSKNTLYLQMNSLRAEDTAVYYCARSLARTTAMDYWGEGTLVTVSSASTKGPSVFPLAPSSKSTSGGTAALGCLVKDYFPEPVTVSWNSGALTSGVHTFPAVLQSSGLYSLSSVVTVPSSSLGTQTYICNVNHKPSNTKVDKKVEPKSCDKTHTCPPCPAPDLLGGDSVFLFPPKPKDTLMISRTPEVTCVVVDVSHEDPEVKFNWYVDGVEVHNAKTKPREEQYNSTYRVVSVLTVLHQDWLNGKEYKCKVSNDALPRPIEKTISKAKGQPREPQVYTLPPSRDELTKNQVSLTCLVKGFYPSDIAVEWESNGQPENNYKTTPPVLDSDGSFFLYSKLTVDKSRWQQGNVFSCSVMHEALHNHYTQESLSLSP light: DIQMTQSPSSLSASVGDRVTITCRASQDISSYLNWYQQKPGKAPKLLIYYTSRLHSGVPSRFSGSGSGTDFTFTISSLQPEDIATYYCQQGNTLPYTFGQGTKVEIK",103 % of control,112 % of control,116 % of control,144 % of control
"IL6R-BP192/IL6R-L (antibody, human IgG1, IgG1; Fc variant of IL6R-B3; copies: 2 + 2) heavy: QVQLQESGPGLVKPSETLSLTCAVSGHSISHDHAWSWVRQPPGEGLEWIGFISYSGITNYNPSLQGRVTISRDNSKNTLYLQMNSLRAEDTAVYYCARSLARTTAMDYWGEGTLVTVSSASTKGPSVFPLAPSSKSTSGGTAALGCLVKDYFPEPVTVSWNSGALTSGVHTFPAVLQSSGLYSLSSVVTVPSSSLGTQTYICNVNHKPSNTKVDKKVEPKSCDKTHTCPPCPAPDLLGGDSVFLFPPKPKDTLMISRTPEVTCVVVDVSDEDGEVKFNWYVDGVEVHNAKTKPREEQDNSTYRVVSVLTVLHQDWLNGKEYKCKVSNKALPKPIEKTISKAKGQPREPQVYTLPPSRDELTKNQVSLTCLVKGFYPSDIAVEWESNGQPENNYKTTPPVLDSDGSFFLYSKLTVDKSRWQQGNVFSCSVMHEALHNHYTQESLSLSP light: DIQMTQSPSSLSASVGDRVTITCRASQDISSYLNWYQQKPGKAPKLLIYYTSRLHSGVPSRFSGSGSGTDFTFTISSLQPEDIATYYCQQGNTLPYTFGQGTKVEIK",118 % of control,109 % of control,122 % of control,172 % of control
"IL6R-BP198/IL6R-L (antibody, human IgG1, IgG1; Fc variant of IL6R-B3; copies: 2 + 2) heavy: QVQLQESGPGLVKPSETLSLTCAVSGHSISHDHAWSWVRQPPGEGLEWIGFISYSGITNYNPSLQGRVTISRDNSKNTLYLQMNSLRAEDTAVYYCARSLARTTAMDYWGEGTLVTVSSASTKGPSVFPLAPSSKSTSGGTAALGCLVKDYFPEPVTVSWNSGALTSGVHTFPAVLQSSGLYSLSSVVTVPSSSLGTQTYICNVNHKPSNTKVDKKVEPKSCDKTHTCPPCPAPDYLGGDSVFLFPPKPKDTLMISRTPEVTCVVVDVSDEDGEVKFNWYVDGVEVHNAKTKPREEQYNSTYRVVSVLTVLHQDWLNGKEYKCKVSNAALPKPIEKTISKAKGQPREPQVYTLPPSRDELTKNQVSLTCLVKGFYPSDIAVEWESNGQPENNYKTTPPVLDSDGSFFLYSKLTVDKSRWQQGNVFSCSVMHEALHNHYTQESLSLSP light: DIQMTQSPSSLSASVGDRVTITCRASQDISSYLNWYQQKPGKAPKLLIYYTSRLHSGVPSRFSGSGSGTDFTFTISSLQPEDIATYYCQQGNTLPYTFGQGTKVEIK",157 % of control,104 % of control,188 % of control,164 % of control
"IL6R-BP189/IL6R-L (antibody, human IgG1, IgG1; Fc variant of IL6R-B3; copies: 2 + 2) heavy: QVQLQESGPGLVKPSETLSLTCAVSGHSISHDHAWSWVRQPPGEGLEWIGFISYSGITNYNPSLQGRVTISRDNSKNTLYLQMNSLRAEDTAVYYCARSLARTTAMDYWGEGTLVTVSSASTKGPSVFPLAPSSKSTSGGTAALGCLVKDYFPEPVTVSWNSGALTSGVHTFPAVLQSSGLYSLSSVVTVPSSSLGTQTYICNVNHKPSNTKVDKKVEPKSCDKTHTCPPCPAPELLGDDSVFLFPPKPKDTLMISRTPEVTCVVVDVSDEDGEVKFNWYVDGVEVHNAKTKPREEQYNSTYRVVSVLTVLHQDWLNGKEYKCKVSNAALPKPIEKTISKAKGQPREPQVYTLPPSRDELTKNQVSLTCLVKGFYPSDIAVEWESNGQPENNYKTTPPVLDSDGSFFLYSKLTVDKSRWQQGNVFSCSVMHEALHNHYTQESLSLSP light: DIQMTQSPSSLSASVGDRVTITCRASQDISSYLNWYQQKPGKAPKLLIYYTSRLHSGVPSRFSGSGSGTDFTFTISSLQPEDIATYYCQQGNTLPYTFGQGTKVEIK",141 % of control,56 % of control,183 % of control,177 % of control
"IL6R-BP196/IL6R-L (antibody, human IgG1, IgG1; Fc variant of IL6R-B3; copies: 2 + 2) heavy: QVQLQESGPGLVKPSETLSLTCAVSGHSISHDHAWSWVRQPPGEGLEWIGFISYSGITNYNPSLQGRVTISRDNSKNTLYLQMNSLRAEDTAVYYCARSLARTTAMDYWGEGTLVTVSSASTKGPSVFPLAPSSKSTSGGTAALGCLVKDYFPEPVTVSWNSGALTSGVHTFPAVLQSSGLYSLSSVVTVPSSSLGTQTYICNVNHKPSNTKVDKKVEPKSCDKTHTCPPCPAPEYLGGDSVFLFPPKPKDTLMISRTPEVTCVVVDVSDEDGEVKFNWYVDGVEVHNAKTKPREEQYNSTYRVVSVLTVLHQDWLNGKEYKCKVSNAALPKPIEKTISKAKGQPREPQVYTLPPSRDELTKNQVSLTCLVKGFYPSDIAVEWESNGQPENNYKTTPPVLDSDGSFFLYSKLTVDKSRWQQGNVFSCSVMHEALHNHYTQESLSLSP light: DIQMTQSPSSLSASVGDRVTITCRASQDISSYLNWYQQKPGKAPKLLIYYTSRLHSGVPSRFSGSGSGTDFTFTISSLQPEDIATYYCQQGNTLPYTFGQGTKVEIK",137 % of control,89 % of control,195 % of control,157 % of control
"IL6R-BP197/IL6R-L (antibody, human IgG1, IgG1; Fc variant of IL6R-B3; copies: 2 + 2) heavy: QVQLQESGPGLVKPSETLSLTCAVSGHSISHDHAWSWVRQPPGEGLEWIGFISYSGITNYNPSLQGRVTISRDNSKNTLYLQMNSLRAEDTAVYYCARSLARTTAMDYWGEGTLVTVSSASTKGPSVFPLAPSSKSTSGGTAALGCLVKDYFPEPVTVSWNSGALTSGVHTFPAVLQSSGLYSLSSVVTVPSSSLGTQTYICNVNHKPSNTKVDKKVEPKSCDKTHTCPPCPAPDYLGDDSVFLFPPKPKDTLMISRTPEVTCVVVDVSDEDGEVKFNWYVDGVEVHNAKTKPREEQDNSTYRVVSVLTVLHQDWLNGKEYKCKVSNDALPKPIEKTISKAKGQPREPQVYTLPPSRDELTKNQVSLTCLVKGFYPSDIAVEWESNGQPENNYKTTPPVLDSDGSFFLYSKLTVDKSRWQQGNVFSCSVMHEALHNHYTQESLSLSP light: DIQMTQSPSSLSASVGDRVTITCRASQDISSYLNWYQQKPGKAPKLLIYYTSRLHSGVPSRFSGSGSGTDFTFTISSLQPEDIATYYCQQGNTLPYTFGQGTKVEIK",206 % of control,71 % of control,294 % of control,179 % of control
"IL6R-BP194/IL6R-L (antibody, human IgG1, IgG1; Fc variant of IL6R-B3; copies: 2 + 2) heavy: QVQLQESGPGLVKPSETLSLTCAVSGHSISHDHAWSWVRQPPGEGLEWIGFISYSGITNYNPSLQGRVTISRDNSKNTLYLQMNSLRAEDTAVYYCARSLARTTAMDYWGEGTLVTVSSASTKGPSVFPLAPSSKSTSGGTAALGCLVKDYFPEPVTVSWNSGALTSGVHTFPAVLQSSGLYSLSSVVTVPSSSLGTQTYICNVNHKPSNTKVDKKVEPKSCDKTHTCPPCPAPDYLGDDSVFLFPPKPKDTLMISRTPEVTCVVVDVSDEDGEVKFNWYVDGVEVHNAKTKPREEQYNSTYRVVSVLTVLHQDWLNGKEYKCKVSNAALPKPIEKTISKAKGQPREPQVYTLPPSRDELTKNQVSLTCLVKGFYPSDIAVEWESNGQPENNYKTTPPVLDSDGSFFLYSKLTVDKSRWQQGNVFSCSVMHEALHNHYTQESLSLSP light: DIQMTQSPSSLSASVGDRVTITCRASQDISSYLNWYQQKPGKAPKLLIYYTSRLHSGVPSRFSGSGSGTDFTFTISSLQPEDIATYYCQQGNTLPYTFGQGTKVEIK",249 % of control,69 % of control,395 % of control,178 % of control
